Data: patent CN114685666A (ZHEJIANG NANOMETER ANTIBODY TECH CENTER LIMITED COMPANY, dated 2022)

Legend:
[1] = molecular target: MSLN expressed on HEK293T cells (HEK293T MSLN细胞) (UniProt Q13421); experiment: flow cytometry on HEK293T cells expressing MSLN, anti-human IgG PE detection
[2] = molecular target: T1, 人MSLN.His抗原 (MSLN.His蛋白, 义翘神州科技股份有限公司, MSN-H5223) (human, UniProt Q13421 296-580, limits assumed); experiment: SPR (Biacore), antibody captured on protein A chip, MSLN.His as analyte at 5 concentrations
T1 construct: Bought protein; not shown: His tag
T1 sequence (Q13421 other isoform, or with tags, fused parts or gaps limits assumed): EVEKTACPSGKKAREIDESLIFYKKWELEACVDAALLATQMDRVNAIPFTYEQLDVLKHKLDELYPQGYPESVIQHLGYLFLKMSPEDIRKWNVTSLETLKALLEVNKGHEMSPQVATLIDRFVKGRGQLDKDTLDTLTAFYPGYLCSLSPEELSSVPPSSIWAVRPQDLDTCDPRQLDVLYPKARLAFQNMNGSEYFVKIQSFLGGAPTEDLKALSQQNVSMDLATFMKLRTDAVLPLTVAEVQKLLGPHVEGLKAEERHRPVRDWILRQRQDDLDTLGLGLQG

B1: M2339 (重链抗体, 纳米抗体构建到pCDNA3.4-IgG4载体上表达) (Fc fusion)
heavy: QLQLGASGGGLVQPGGSLRLSCALSGFTLRELDEFAIGWFRQAPGKEREGVSCISGTGGITHYADSVKGRFTISRDIAKTTVYLQMNSLNSEDTAVYYCAADERCTDRLIRPPTYWGQGTQVTVSS
notes: also called 候选抗体; not shown: IgG4 constant part from the vector pCDNA3.4-IgG4
With B1 the EC50 [1] was 3.68 nM, the Kd [2] was 0.264 nM and the koff [2] was 1.82e-05 s⁻¹. For the same binder, the kon [2] was 69000 M⁻¹ s⁻¹.
